Data reported in publication PMC2871789, “Characterization of the Interaction and Cross-Regulation of Three Mycobacterium tuberculosis RelBE Modules”.

Experiments:
RelJ = molecular target: T1, RelJ (Mycobacterium tuberculosis H37Rv, UniProt P9WF25 1-91); assay: EMSA; 7.5 uM RelJ alone; conditions: protein: recombinant; tags: His or GST; chain copies: 2; label: 5'-32P; blunt
T1 sequence: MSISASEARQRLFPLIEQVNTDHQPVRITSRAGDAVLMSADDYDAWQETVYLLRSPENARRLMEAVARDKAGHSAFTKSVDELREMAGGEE

RelJ;RelK = RelJ;RelK (Mycobacterium tuberculosis …, UniProt P9WF25;P9WF09 1-91;1-85, |); assay: EMSA; 1.8-15 uM titration; conditions: protein: recombinant;recombinant; tags: His or GST;His or GST; label: 5'-32P; blunt
RelB;RelE = molecular target: T2, RelB;RelE (Mycobacterium tuberculosis …, UniProt O50462;O50461 1-89;1-97, |); assay: EMSA; 1.8-15 uM titration; conditions: protein: recombinant;recombinant; tags: His (modified pET28a);His or GST; chain copies: 2;2; label: 5'-32P; blunt
T2 sequence 1: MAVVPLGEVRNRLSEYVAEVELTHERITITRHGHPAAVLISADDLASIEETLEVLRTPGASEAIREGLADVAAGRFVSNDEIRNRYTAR
T2 sequence 2: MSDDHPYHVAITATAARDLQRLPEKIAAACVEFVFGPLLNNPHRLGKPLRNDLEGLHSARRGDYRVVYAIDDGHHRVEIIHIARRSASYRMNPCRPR

RelF;RelG = molecular target: T3, RelF;RelG (Mycobacterium tuberculosis …, UniProt O33347;O33348 1-93;1-87, |); assay: EMSA; conditions: protein: recombinant;recombinant; tags: His or GST;His or GST; label: 5'-32P; blunt
T3 sequence 1: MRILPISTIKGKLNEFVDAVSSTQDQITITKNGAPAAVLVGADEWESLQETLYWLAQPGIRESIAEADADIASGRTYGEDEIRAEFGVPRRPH
T3 sequence 2: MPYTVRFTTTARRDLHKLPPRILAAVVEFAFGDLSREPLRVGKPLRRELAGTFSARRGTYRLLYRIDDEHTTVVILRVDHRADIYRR

Chain of RelJ;RelK (P9WF09 whole entry, one chain of several): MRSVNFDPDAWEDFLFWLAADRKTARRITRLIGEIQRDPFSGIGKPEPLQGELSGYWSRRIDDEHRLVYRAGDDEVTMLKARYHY

B1: 3357p7 (dsDNA)
DNA 1: CCACCGTACGGACAACTTGTACCATTGTGGTACAGATTATCCGTACATCTT
DNA 2: AAGATGTACGGATAATCTGTACCACAATGGTACAAGTTGTCCGTACGGTGG
B1: binds (RelJ); binds (RelJ;RelK).

B2: 1247p7 (dsDNA)
DNA 1: GGCGTTCGGCTCGGTAAGCCGATGCTCGGCG
DNA 2: CGCCGAGCATCGGCTTACCGAGCCGAACGCC
B2: binds (RelB;RelE).

B3: 2865p7 (dsDNA)
DNA 1: AAACCTGAGACGCCGCGCACAAAGTGCGAAACC
DNA 2: GGTTTCGCACTTTGTGCGCGGCGTCTCAGGTTT
B3: binds (RelF;RelG).
